Measurements: PMC11703740, “Disparate molecular mechanisms in cardiac ryanodine receptor channelopathies” (Frontiers in Molecular Biosciences, 2024)
Residue numbers refer to the chain shown, from its start. Numbers in names are those of the source.

B1: NT^WT (human RyR2 residues 1-906, cMyc-tagged) (domain or fragment, UniProt Q92736 1-906, looked up)
chain: MADGGEGEDEIQFLRTDDEVVLQCTATIHKEQQKLCLAAEGFGNRLCFLESTSNSKNVPPDLSICTFVLEQSLSVRALQEMLANTVEKSEGQVDVEKWKFMMKTAQGGGHRTLLYGHAILLRHSYSGMYLCCLSTSRSSTDKLAFDVGLQEDTTGEACWWTIHPASKQRSEGEKVRVGDDLILVSVSSERYLHLSYGNGSLHVDAAFQQTLWSVAPISSGSEAAQGYLIGGDVLRLLHGHMDECLTVPSGEHGEEQRRTVHYEGGAVSVHARSLWRLETLRVAWSGSHIRWGQPFRLRHVTTGKYLSLMEDKNLLLMDKEKADVKSTAFTFRSSKEKLDVGVRKEVDGMGTSEIKYGDSVCYIQHVDTGLWLTYQSVDVKSVRMGSIQRKAIMHHEGHMDDGISLSRSQHEESRTARVIRSTVFLFNRFIRGLDALSKKAKASTVDLPIESVSLSLQDLIGYFHPPDEHLEHEDKQNRLRALKNRQNLFQEEGMINLVLECIDRLHVYSSAAHFADVAGREAGESWKSILNSLYELLAALIRGNRKNCAQFSGSLDWLISRLERLEASSGILEVLHCVLVESPEALNIIKEGHIKSIISLLDKHGRNHKVLDVLCSLCVCHGVAVRSNQHLICDNLLPGRDLLLQTRLVNHVSSMRPNIFLGVSEGSAQYKKWYYELMVDHTEPFVTAEATHLRVGWASTEGYSPYPGGGEEWGGNGVGDDLFSYGFDGLHLWSGCIARTVSSPNQHLLRTDDVISCCLDLSAPSISFRINGQPVQGMFENFNIDGLFFPVVSFSAGIKVRFLLGGRHGEFKFLPPPGYAPCYEAVLPKEKLKVEHSREYKQERTYTRDLLGPTVSLTQAAFTPIPVDTSQIVLPPHLERIREKLAENIHELWVMNKIELGWQYGP
notes: cardiac ryanodine receptor (RyR2), human, N-terminus residues 1-906; also called wild-type RyR2 N-terminus; RyR2-NT; source: HEK293, transiently transfected, in cell homogenate (cross-linking) or CHAPS-solubilized lysate (co-IP)
B2: NT^G357S (human RyR2 residues 1-906, cMyc-tagged, G357S) (domain or fragment, UniProt Q92736 1-906, looked up)
chain: B1 chain with G357S
notes: cardiac ryanodine receptor (RyR2), human, N-terminus residues 1-906 with the CPVT mutation G357S; Mutation made by site-directed mutagenesis in the NT^WT plasmid; a variant reported in patients; also called type II^intra variant; source: HEK293, transiently transfected, in cell homogenate (cross-linking) or CHAPS-solubilized lysate (co-IP)
B3: NT^R169L (human RyR2 residues 1-906, cMyc-tagged, R169L) (domain or fragment, UniProt Q92736 1-906, looked up)
chain: B1 chain with R169L
notes: cardiac ryanodine receptor (RyR2), human, N-terminus residues 1-906 with the CPVT mutation R169L; Mutation made by site-directed mutagenesis in the NT^WT plasmid; a variant reported in patients; also called type I variant; source: HEK293, transiently transfected, in cell homogenate (cross-linking) or CHAPS-solubilized lysate (co-IP)
B4: NT^A77T (human RyR2 residues 1-906, cMyc-tagged, A77T) (domain or fragment, UniProt Q92736 1-906, looked up)
chain: B1 chain with A77T
notes: cardiac ryanodine receptor (RyR2), human, N-terminus residues 1-906 with the patient mutation A77T; Mutation made by site-directed mutagenesis in the NT^WT plasmid; a variant reported in patients; also called type II^inter variant; source: HEK293, transiently transfected, in cell homogenate (cross-linking) or CHAPS-solubilized lysate (co-IP)

Biological target: the molecule itself
Assay: cross-linking; HEK293 cell homogenate supernatant (20 ug; 5 mM HEPES, 0.3 M sucrose, 10 mM DTT, pH 7.4) with glutaraldehyde (0.0025% or 260 umol/L) for 0-60 min; SDS-PAGE and Western blot with Ab^cMyc; monomer and tetramer bands by densitometry
B1 was tested, and the “stoichiometry N” value was 4.
For B2, the “stoichiometry N” value was 4.
In the case of B3, the “stoichiometry N” value is reported as 4.
B4 was tested, and the “stoichiometry N” value was 4.
